System: EGR1, ARC, and MAPK1 mRNA transcripts
Test: Fluorescence in situ hybridization of mRNA transcripts in APP/PS1 hippocampus CA1
Format: in vivo, transgenic APP/PS1 mice
Conditions: CA1 region of hippocampus; all three groups compared
Description: Coronal brain sections (10 μm thickness) were washed three times in PBS before mounting on gelatin-coated glass slides (Superfrost Plus, Thermo Fisher Scientific). Tissues were allowed to dry at RT and were then stored at −20° C. until use. Fluorescence in situ hybridization (FISH) was performed using Multiplex Reagent Kit V2 from RNAscope® Technology 2.0 (Advanced Cell Diagnostics (ACD), Hayward, Calif.). See Vasquez, J. J., Hussien, R., Aguilar-Rodriguez, B., Junger, H., Dobi, D., Henrich, T. J., Thanh, C., Gibson, E., Hogan, L. E., McCune, J., Hunt, P. W., Stoddart, C. A.,Laszik, Z. G., Elucidating the Burden of HIV in Tissues Using Multiplexed Immunofluorescence and In Situ Hybridization: Methods for the Single-Cell Phenotypic Characterization of Cells Harboring HIV In Situ. J Histochem Cytochem 2018; 66:427-46; Gershon, T. R., Crowther, A. J., Liu, H., Miller, C. R.,Deshmukh, M., Cerebellar granule neuron progenitors are the source of Hk2 in the postnatal cerebellum. Cancer Metab 2013; 1:15; and Smith, P. A., Schmid, C., Zurbruegg, S., Jivkov, M., Doelemeyer, A., Theil, D., Dubost, V., Beckmann, N., Fingolimod inhibits brain atrophy and promotes brain-derived neurotrophic factor in an animal model of multiple sclerosis. J Neuroimmunol 2018; 318:103-13. Mounted tissue sections were deparaffinized using xylene and serially dehydrated in 50%, 70%, 95%, and 100% ethanol for 5 min each. […]

B1: BDNF: recombinant brain-derived neurotrophic factor (13 kDa monomer), Peprotech (protein, UniProt P23560 19-247, looked up)
Neurotrophic factor BDNF …: APMKEANIRGQGGLAYPGVRTHGTLESVNGPKAGSRGLTSLADTFEHVIEELLDEDQKVRPNEENNKDADLYTSRVMLSSQVPLEPPLLFLLEEYKNYLDAANMSMRVRRHSDPARRGELSVCDSISEWVTAADKKTAVDMSGGTVTVLEKVPVSKGQLKQYFYETKCNPMGYTKEGCRGIDKRHWNSQCRTTQSYVRALTMDSKKRIGWRFIRIDTSCVCTLTIKRGR
For B1, the MAPK1 expression was “no significant differences”.
